Reference: patent publication US10654939 (BEIJING MABWORKS BIOTECH, dated 2020)
Residue numbers refer to the chain shown, from its start. Read-outs that look alike come from different tables or passages of the source.

T1: rhesus CD40 expressed on HEK293A cells (rhesus monkey, UniProt P25942 21-277 (human entry))
T1 construct: also called HEK293A/rhesusCD40
T1 chain: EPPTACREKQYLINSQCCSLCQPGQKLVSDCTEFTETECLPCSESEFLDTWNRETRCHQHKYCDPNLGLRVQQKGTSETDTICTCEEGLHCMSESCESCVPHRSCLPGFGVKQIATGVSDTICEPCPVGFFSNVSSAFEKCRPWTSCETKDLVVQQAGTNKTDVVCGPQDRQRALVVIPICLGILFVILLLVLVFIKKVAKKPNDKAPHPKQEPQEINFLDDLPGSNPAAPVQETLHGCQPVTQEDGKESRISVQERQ

B1: chimeric 13A2 antibody (antibody, human IgG2, kappa, V domains shown)
VH: EVKLEQSGPGLVKPSQSLSLTCSVTGYSITTNYYWNWIRQFPGNKLEWMGYINYDGSNNYNPSLKNRISITRDTSKNQFFLKLNSVTTEDTATYYCARLDYWGQGTSVTVSS
VL: DIVMTQSPLSLPVSLGDQASISCRSSQSLENSNGNTFLNWFLQKPGQSPQLLIYKVSNRFSGVLDRFSGTGSGTDFTLTISRVEAEDLGVYFCLQVTHVPFTFGSGTKLEIKR
notes: Mouse variable regions with human IgG2/kappa constant regions
B2: 13A2-VH3VL2 (antibody, human IgG2, kappa, V domains shown)
VH: QVQLQESGPGLVKPSDTLSLTCAVSGYSITTNYYWNWIRQPPGNKLEWMGYINYDGSNNYNPSLKNRITISVDTSKNQFSLKLSSVTAVDTAVYYCARLDYWGQGTLVTVSS
VL: DVVLTQSPLSLPVTLGQPASISCRSSQSLENSNGNTFLNWFQQRPGQSPRLLIYKVSNRFSGVPDRFSGSGSGTDFTLKISRVEAEDVGVYYCLQVTHVPFTFGQGTKLEIKR
notes: Humanized, human IgG2/kappa
B3: 13A2-VH3VL3 (antibody, human IgG2, kappa, V domains shown)
VH: B2 VH
VL: B2 VL with Y92F, Q105S
notes: Humanized, human IgG2/kappa
B4: 7B4-VH2VL2 (antibody, V domains shown)
VH: B2 VH with N44K, K45G, N53K
VL: B2 VL
notes: Humanized, human IgG2/kappa; also called 7B4H2L2

Key:
[1] = target: T2, CD40 ECD Truncant 2 (amino acid 104-193) with mFc-tag (human); test: ELISA on recombinant CD40 ECD proteins with mFc tag (Example 16); antibody concentration not given
T2 construct: mFc-tag at the C terminus; also called CRD3/4
T2 sequence (chain, as listed by the source limits assumed): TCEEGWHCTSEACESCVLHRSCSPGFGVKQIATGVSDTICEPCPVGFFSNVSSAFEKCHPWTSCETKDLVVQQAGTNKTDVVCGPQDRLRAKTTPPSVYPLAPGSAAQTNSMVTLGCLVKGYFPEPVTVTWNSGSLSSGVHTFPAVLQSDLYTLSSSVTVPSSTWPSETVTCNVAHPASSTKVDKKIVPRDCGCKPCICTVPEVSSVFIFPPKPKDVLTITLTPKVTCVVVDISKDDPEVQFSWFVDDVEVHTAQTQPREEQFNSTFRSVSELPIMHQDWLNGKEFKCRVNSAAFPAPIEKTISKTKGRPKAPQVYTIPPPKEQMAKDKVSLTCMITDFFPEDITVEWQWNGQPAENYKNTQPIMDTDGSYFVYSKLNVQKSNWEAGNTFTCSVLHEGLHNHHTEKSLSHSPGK

[2] = target: T3, CD40 ECD Truncant 4 (amino acid 38-193) with mFc-tag (human); test: as above
T3 construct: Truncated CRD1; mFc-tag at the C terminus; also called CRD delta1/2/3/4
T3 sequence (chain, as listed by the source limits assumed): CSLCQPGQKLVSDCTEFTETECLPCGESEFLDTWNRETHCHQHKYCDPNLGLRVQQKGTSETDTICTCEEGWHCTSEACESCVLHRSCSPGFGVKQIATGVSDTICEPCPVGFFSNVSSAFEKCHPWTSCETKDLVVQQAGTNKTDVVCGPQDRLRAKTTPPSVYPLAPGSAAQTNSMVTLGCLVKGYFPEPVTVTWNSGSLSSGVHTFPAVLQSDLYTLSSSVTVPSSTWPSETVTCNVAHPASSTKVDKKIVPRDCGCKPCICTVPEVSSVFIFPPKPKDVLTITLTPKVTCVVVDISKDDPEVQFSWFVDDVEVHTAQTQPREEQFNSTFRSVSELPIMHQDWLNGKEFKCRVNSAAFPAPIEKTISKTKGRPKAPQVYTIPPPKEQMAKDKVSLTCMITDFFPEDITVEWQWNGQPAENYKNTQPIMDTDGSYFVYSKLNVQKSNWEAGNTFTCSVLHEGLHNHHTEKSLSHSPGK

[3] = target: Full-length CD40 ECD (amino acid 21-193, human CD40) with mFc-tag (human); test: as above
[4] = target: T4, CD40 ECD Truncant 5 (amino acid 21-37 & 61-193) with mFc-tag (human); test: as above
T4 construct: Truncated CRD1; mFc-tag at the C terminus; also called CRD delta1/2/3/4
T4 sequence (chain, as listed by the source limits assumed): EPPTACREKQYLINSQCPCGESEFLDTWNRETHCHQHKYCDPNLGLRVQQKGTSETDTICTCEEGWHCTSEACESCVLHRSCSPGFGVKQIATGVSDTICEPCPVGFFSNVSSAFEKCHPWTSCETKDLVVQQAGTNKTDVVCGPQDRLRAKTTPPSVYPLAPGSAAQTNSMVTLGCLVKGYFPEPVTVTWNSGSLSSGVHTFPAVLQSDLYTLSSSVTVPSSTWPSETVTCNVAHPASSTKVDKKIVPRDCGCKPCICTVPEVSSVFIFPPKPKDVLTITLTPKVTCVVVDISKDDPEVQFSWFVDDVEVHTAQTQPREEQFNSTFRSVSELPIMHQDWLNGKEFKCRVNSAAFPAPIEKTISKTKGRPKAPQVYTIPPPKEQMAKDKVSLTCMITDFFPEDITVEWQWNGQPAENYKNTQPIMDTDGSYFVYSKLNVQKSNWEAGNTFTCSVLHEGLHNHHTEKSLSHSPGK

[5] = target: T5, CD40 ECD Truncant 1 (amino acid 61-193) with mFc-tag (human); test: as above
T5 construct: mFc-tag at the C terminus; also called CRD2/3/4
T5 sequence (chain, as listed by the source limits assumed): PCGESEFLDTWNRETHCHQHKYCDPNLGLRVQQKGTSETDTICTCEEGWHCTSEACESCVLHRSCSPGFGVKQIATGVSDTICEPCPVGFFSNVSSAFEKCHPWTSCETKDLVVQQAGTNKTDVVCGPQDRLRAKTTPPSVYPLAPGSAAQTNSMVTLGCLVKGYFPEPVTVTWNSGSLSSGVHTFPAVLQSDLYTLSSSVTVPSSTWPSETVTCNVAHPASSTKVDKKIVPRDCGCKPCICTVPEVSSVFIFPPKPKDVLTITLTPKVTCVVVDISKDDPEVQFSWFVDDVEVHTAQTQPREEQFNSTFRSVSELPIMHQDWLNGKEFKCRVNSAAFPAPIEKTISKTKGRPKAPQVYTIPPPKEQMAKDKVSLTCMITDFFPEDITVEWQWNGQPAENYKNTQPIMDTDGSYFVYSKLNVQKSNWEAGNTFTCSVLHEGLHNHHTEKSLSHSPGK

[6] = target: T6, CD40 ECD Truncant 3 (amino acid 145-193) with mFc-tag (human); test: as above
T6 construct: mFc-tag at the C terminus; also called CRD4
T6 sequence (chain, as listed by the source limits assumed): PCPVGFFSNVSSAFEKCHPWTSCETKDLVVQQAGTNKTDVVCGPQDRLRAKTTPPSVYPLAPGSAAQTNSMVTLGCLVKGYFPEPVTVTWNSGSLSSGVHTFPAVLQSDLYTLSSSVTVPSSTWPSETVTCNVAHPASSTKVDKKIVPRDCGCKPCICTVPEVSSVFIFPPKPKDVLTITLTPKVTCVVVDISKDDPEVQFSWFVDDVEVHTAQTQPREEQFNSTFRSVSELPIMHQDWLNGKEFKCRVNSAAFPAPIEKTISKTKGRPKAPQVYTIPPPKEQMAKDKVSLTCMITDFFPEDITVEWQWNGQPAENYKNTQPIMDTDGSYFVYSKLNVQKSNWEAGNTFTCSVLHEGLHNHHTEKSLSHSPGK

[7] = target: T7, CD40 ECD Mutant 1 (amino acid 21-193, R7A/E8A) with mFc-tag (human); test: as above
T7 construct: Signal peptide left out
T7 sequence (chain, as listed by the source limits assumed, stated change not applied): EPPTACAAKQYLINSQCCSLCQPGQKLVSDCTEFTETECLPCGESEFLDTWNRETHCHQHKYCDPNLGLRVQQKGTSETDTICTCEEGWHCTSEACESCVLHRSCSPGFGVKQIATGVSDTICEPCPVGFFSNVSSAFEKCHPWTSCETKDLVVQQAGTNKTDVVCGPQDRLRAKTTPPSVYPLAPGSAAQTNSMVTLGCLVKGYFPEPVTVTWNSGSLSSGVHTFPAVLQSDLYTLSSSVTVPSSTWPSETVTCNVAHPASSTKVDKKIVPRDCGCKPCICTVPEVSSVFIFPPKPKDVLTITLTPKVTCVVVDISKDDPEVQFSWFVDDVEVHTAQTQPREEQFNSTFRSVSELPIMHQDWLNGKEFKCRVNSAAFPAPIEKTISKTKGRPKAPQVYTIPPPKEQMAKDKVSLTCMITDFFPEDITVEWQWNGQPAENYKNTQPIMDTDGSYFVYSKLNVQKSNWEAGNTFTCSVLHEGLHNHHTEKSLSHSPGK

[8] = target: T8, mouse CD40 expressed on HEK293A cells (mouse, UniProt P27512 20-289); test: FACS, HEK293A/mouseCD40 cells
T8 construct: also called HEK293A/mouseCD40
T8 sequence (P27512 20-289 limits assumed): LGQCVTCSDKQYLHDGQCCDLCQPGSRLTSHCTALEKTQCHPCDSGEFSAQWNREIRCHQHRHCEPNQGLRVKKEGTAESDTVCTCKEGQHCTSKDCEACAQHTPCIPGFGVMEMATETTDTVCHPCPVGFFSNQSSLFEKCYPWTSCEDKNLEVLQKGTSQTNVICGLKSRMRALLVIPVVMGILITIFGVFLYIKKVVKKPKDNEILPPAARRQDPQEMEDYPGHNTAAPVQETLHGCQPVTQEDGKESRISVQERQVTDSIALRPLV

[9] = target: T9, recombinant human CD40 (ECD)-his (human, UniProt P25942 21-193); test: SPR (Biacore 8K), hCD40(ECD)-his coupled to chip, antibody injected
T9 construct: Bought protein; also called hCD40(ECD)-his; TNFRSF5
Protocol: SPR assays were used to determine the binding affinity of the chimetic or humanized anti-CD40 antibodies to human CD40 with the BIAcore™ 8K instrument (GE Life Sciences). Briefly, 100-200 response units (RU) of human CD40 (ECD)-his protein (Sino Biological, CN, Cat #: 10774-H08H) were coupled to CM5 biosensor chips (Cat #: BR-1005-30, GE Life Sciences), followed by blocking of un-reacted groups with 1M ethanolamine. Serially diluted antibodies at concentrations ranging from […] were injected into the SPR running buffer (HBS-EP buffer, pH7.4, GE Life Sciences; US; Cat #: BR-1006-69) at 30 μL/minute. The binding capacity was calculated with the RUs of blank controls subtracted. The association rate (k_a) and dissociation rate (k_d) were calculated using the one-to-one Langmuir binding model (BIA Evaluation Software, GE Life Sciences). The equilibrium dissociation constant K_D was calculated as the k_d/k_a ratio.

[10] = target: T1, rhesus CD40 expressed on HEK293A cells; test: FACS on HEK293A/rhesus CD40 cells, serially diluted antibody (Example 14, protocol of Example 5)
Protocol: Example 5 Mouse Anti-CD40 Monoclonal Antibodies Bound to Human and Rhesus CD40 Expressed on HEK293A Cells To further determine whether anti-CD40 antibodies bound to human, monkey or mouse CD40 expressed on HEK293A cells, a cell-based binding assay by FACS was performed using the HEK293A cells stably overexpressing human, monkey or mouse CD40 as generated in Example 1, respectively. Briefly, 10^5 HEK293A cells were seeded into each well of the 96-well plates and serially diluted anti-CD40 antibodies were added to the plates. After incubated at 4° C. for 1 hour, plates were washed 3 times with PBST. Then, an APC coupled Goat Anti-Mouse IgG (BioLegen, US, Cat #: 405308) diluted 500× was added to the plates. After incubation at 4° C. for 1 hour, the plates were washed with PBS for 3 times and then cell fluorescence was monitored using a FACS machine (BD).
The chimeric and humanized anti-CD40 antibodies were further characterized for their ability of binding to HEK293A/humanCD40 cells and HEK293A/rhesus CD40 cells, following the protocols described in Example 5. They were also tested for their ability to activate CD40 signaling in HEK-Blue assay, and to promote dendritic cell maturation, following the protocols in Example 7 and Example 9, respectively, the dendritic cells collected form three healthy human donors. IL-12(p40) secretion by the dendritic cells was measured by using human IL12(p40) ELISA kit (BD, US, Cat #: 551116) following themanufactor's instruction.

[11] = target: T9, recombinant human CD40 (ECD)-his; test: ELISA on coated recombinant TNFRSF proteins, serially diluted antibody (Example 17)
[12] = target: T9, recombinant human CD40 (ECD)-his; test: as above; remark: listed apart in the source

Row | Binder | binding result [1] | binding result [2] | binding result [3] | binding result [4] | binding result [5] | binding result [6] | binding result [7] | binding result [8] | Kd [9] | koff [9] | kon [9] | binding result [10] | EC50 (read off the curve) [11] | EC50 (read off the curve) [10] | EC50 (read off the curve) [12]
1 | B1 | no binding | no binding | binds | no binding | no binding | no binding | binds | no binding | 3.58 nM | 0.00173 s⁻¹ | 484000 M⁻¹ s⁻¹ | – | – | – | –
2 | B2 | no binding | no binding | binds | no binding | no binding | no binding | binds | – | 2.93 nM | 0.00242 s⁻¹ | 825000 M⁻¹ s⁻¹ | binds | – | – | –
3 | B3 | no binding | no binding | binds | no binding | no binding | no binding | binds | – | 7.68 nM | 0.00459 s⁻¹ | 598000 M⁻¹ s⁻¹ | binds | ~0.02 µg/mL | – | –
4 | B4 | – | – | – | – | – | – | – | – | 2.91 nM | 0.00581 s⁻¹ | 2e+06 M⁻¹ s⁻¹ | – | – | ~0.2 µg/mL | ~0.02 µg/mL
